Results published in US9089565B2, “Compositions and methods for causing neurite outgrowth” (MEDICAL RESEARCH COUNCIL, priority 2009, dated 2015).

Target: T1, NgR1 (Homo sapiens, UniProt Q9BZR6, S281A)
T1 construct: The cDNAs of NgR1 (NM 023004, Nt. 184-1543); expressed in transfected cells; host or cells: COS7
T1 sequence (Q9BZR6 27-447 S281A): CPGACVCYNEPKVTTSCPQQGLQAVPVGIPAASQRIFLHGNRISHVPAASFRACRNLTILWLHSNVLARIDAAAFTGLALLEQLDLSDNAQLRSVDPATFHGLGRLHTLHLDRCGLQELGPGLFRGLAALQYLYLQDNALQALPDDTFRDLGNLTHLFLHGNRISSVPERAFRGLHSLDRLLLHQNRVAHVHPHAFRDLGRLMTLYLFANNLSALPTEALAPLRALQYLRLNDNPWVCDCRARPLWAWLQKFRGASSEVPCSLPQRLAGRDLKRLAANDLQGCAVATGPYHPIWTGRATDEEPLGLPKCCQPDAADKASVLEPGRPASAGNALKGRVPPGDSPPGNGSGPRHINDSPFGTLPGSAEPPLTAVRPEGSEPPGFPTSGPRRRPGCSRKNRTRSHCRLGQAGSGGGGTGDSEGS
Test: Binding of Nogo-66 fragment (Nogo-GFP) to COS7 cells over-expressing NgR1
Details: 281S/A mutant NgR1; pre-treatment 30 min (CK2 with ATP, or NEP1-40)
Experimental: FIG. 3. CK2 phosphorylates NgR1, and inhibits binding of the myelin-associated proteins to NgR1. (A) Myc-tagged wild type, 281S/A or 281S/D mutant NgR1 were over-expressed in COS7 cells. The over-expressed cells were incubated with either the combination of ATP and CK2, or NEP1-40 for 30 min at 37° C. After washing with PBS, cells were incubated with Hisx6-tagged Nogo-GFP for 3 hours at 4° C. The cells were fixed and immunofluorescence was performed with anti-Myc and anti-GFP antibodies. (B) COS7 cells over-expressing Myc-tagged wild type NgR1 were treated as described in (A). Proteins were extracted and the Myc-tagged NgR1 was immunoprecipitated with anti-Myc antibody. Co-precipitated Hisx6-tagged Nogo-GFP was detected by anti-GFP antibody. (C) Cell surface proteins in NgR1-overexpressing COS7 cells were labelled with biotin. The biotinylated proteins were fractionated and analysed by SDS-PAGE. Biotinylated NgR1-Myc was detected with anti-Myc. antibody. (D) COS7 cells over-expressing either wild type NgR1-Myc or 281S/A mutant NgR1-Myc were incubated with ã-^32P-ATP in the presence or absence of CK2. Myc-tagged proteins were immunoprecipitated and analysed with SDS-PAGE. Proteins were blotted onto a PVDF membrane and the membrane was exposed to X-ray film to detect incorporated ^32P. After autoradiography, the membrane was used for immunoblotting with anti-Myc antibody. (E and F) COS7 cells over-expressing Myc-tagged wild type, 281S/A or 281S/D mutant NgR1, were treated as described in (A). After washing with PBS, cells were incubated with either His-tagged OMgp (E) or HA-tagged MAG (F) for 3 hours at 4° C. […]
After treatment with or without CK2, COS7 cells over-expressing wild type or mutant NgR were incubated with Hisx6 tagged Nogo-GFP (10 μg/ml), HA-MAG (50 μg/ml) or Hisx6 tagged OMgp (10 μg/ml) in PBS for 3 hours at 4° C. […] Biotinylated proteins were precipitated with streptavidin beads and were analysed by SDS-PAGE. Each sample fractionated from 5×10^6 cells was analysed by SDS-PAGE. […]

Substance: NEP1-40: a competitive inhibitor of Nogo-66 binding to NgR1 (MEDLDQSPLVSSSDSPPRPQPAFKYQFVREPEDEEEEEEE; Nogo-66 residues 1-40; UniProt Q9NQC3 1-40, looked up, fragment) [reference compound]
- binding of the Nogo-66 fragment, immunofluorescence: inhibited binding
